We go through 2 molecules from patent US12618050B2, “Engineered polypeptides that exhibit increased catalytic efficiency for unnatural cofactors and uses thereof” (The Regents of the University of California, priority 2018, dated 2026).

Entries after “also recorded” stand apart in the source; their conditions may differ.

Data set [1] in a line: GDH enzymatic assay with NAD^+ as cofactor. The data set is classed as biochemical. How it is done: (§1) GDH enzymatic assays. The GDH activity was measured as described in Hilt et al. (Biochimica et biophysica acta 1076(2):298-304 (1991)). The reactions were started by adding the purified protein to the assay mixture containing 35 mM Tris-HCl buffer (pH 8.0), 3 mM NAD^+, NADP^+ or NMN^+ and 140 mM glucose. The absorbance variation at 340 nm was detected by a spectrophotometer at 25° C.

The nature of data set [2]: GDH enzymatic assay with NADP^+ as cofactor. The data set is classed as biochemical. How it is done: as §1
Data set [3] is described as follows: GDH enzymatic assay with NMN^+ as cofactor. Format: biochemical. How it is done:
as §1

Data set [4] concerns E. coli strain MX103. The data set can be described thus: E. coli growth with NMN^+-dependent glycolysis. Format: cell-based, Escherichia coli.
The subject of data set [5] is E. coli whole cells. Kind of data set: NMN^+-dependent whole-cell biotransformation of KIP. Format: cell-based, Escherichia coli. How it is done:
NMN^+-dependent whole-cell biotransformation. One biotransformation plasmid expressing XenA, LVR, or ADH with a GDH (selected from pLZ217-pLZ225) and pSM104 containing the glucose transport facilitator were transformed into strain MX102 by electroporation. 4 mL seed cultures of 2×YT media with appropriate antibiotics, 0.1 mM IPTG, and 0.2% (wt/v) glucose were cultured at 30° C. while shaking at 250 rpm for 16 hours. 0.5% (v/v) seed cultures were used to inoculate 150 mL of 2×YT media with appropriate antibiotics, A5 trace metals with cobalt, and 0.5 mM IPTG in a 250 mL baffled shake flask and cultured at 30° C. at 250 rpm. When an OD600˜0.4 was reached, protein expression was induced with 0.1% (w/v) arabinose and cultured for an additional 8 hours at 30° C. while shaking at 250 rpm. Cells were harvested by centrifugation for 15 minutes at 20° C. at 3750 rpm. The supernatant was discarded. Nutrients from the media were removed by washing the pelleted cells 3 times with 50 mL of 100 mM potassium phosphate at pH 7.5. Cells were resuspended to an OD600 of 100 in assay buffer consisting of 100 mM potassium phosphate buffer at pH 7.5, 200 mM D-glucose, 0.5% arabinose, and 0.5 mM IPTG. 1 mL of resuspended cells were added to 20 mL of identical assay buffer in a 250 mL unbaffled, screw-cap shake flask. KIP was spiked into the flask to 5 g/L to initiate the reaction. Flask caps were secured tightly to prevent evaporative loss of substrate or products. Flasks were incubated at 30° C. while shaking at 250 rpm for 48 hours. After 48 hours, 1 mL of culture was pelleted, and the supernatant was used for analysis. 200 μL of supernatant was extracted with an equal volume of ethyl acetate containing 200 mg/L octanol as an internal standard, and the samples were analyzed by gas chromatography. For samples expressing all three conversion enzymes (XenA, LVR, and ADH) on the same vector (pLZ226), the Bs GDH was expressed individually on a separate vector (pSM106, pSM107, or pSM108). The Zm glf gene was also expressed in the system (pSM110).

Data set [6] can be described thus: XenA activity with different cofactors. Format: biochemical. The settings on record: ketoisophorone as substrate. How it is done:
Enzyme assay conditions: The enzymatic buffer contained 200 mM phosphate buffer (pH 7.5), 5 mM ketoisophorone, and 0.2 mM NADPH, NADH, or NMNH, and appropriate amount of purified XenA protein. The initial reaction rate was quantified by absorbance variation at 340 nm using a spectrophotometer at 37° C. Reactions with no ketoisophorone added were performed to quantify the non-specific reaction rate. The net reaction rate as shown in FIG. 13 was calculated by subtracting the non-specific reaction rate from the total reaction rate. For generating NMNH, a microcentrifuge tube (2 mL) containing 35 mM Tris-HCl (pH 8.0), 4 mM NMN^+, 1 M NaCl and 140 mM glucose, was incubated for ˜3 hr at 30° C. with purified Bs GDH I195R. An aliquot of this reaction system was taken to measure the accumulation of NMNH by reading absorbance at 340 nm. The proteins in the reaction were removed by filtering the mixture with centrifugal filter units (Amicon Ultra-0.5 Centrifugal Filter Units, Millipore, USA). The solvent was evaporated, and the residue was collected to give NMNH as a yellowish oil.

B1: I195R-A93K-Y39Q-S17E: Bs GDH with I195R, A93K, Y39Q, S17E substitutions (SEQ ID NO:7) (protein)
chain: MYPDLKGKVVAITGAAEGLGKAMAIRFGKEQAKVVINYQSNKQDPNEVKEEVIKAGGEAVVVQGDVTKEEDVKNIVQTAIKEFGTLDIMINNKGLENPVPSHEMPLKDWDKVIGTNLTGAFLGSREAIKYFVENDIKGNVINMSSVHEVIPWPLFVHYAASKGGIKLMTETLALEYAPKGIRVNNIGPGAINTPRNAEKFADPKQKADVESMIPMGYIGEPEEIAAVAAWLASKEASYVTGITLFADGGMTQYPSFQAGRG
modifications: I195R A93K Y39Q S17E mutant GDH coding sequence
In the case of B1, the Kcat in data set [1] (cofactor NAD^+) was determined as 0.025 ± 0.002 s⁻¹; in data set [2] (cofactor NADP^+), 0.022 ± 0.013 s⁻¹; in data set [3] (cofactor NMN^+), 1.21 ± 0.09 s⁻¹. The values for the Km in data set [1] (cofactor NAD^+), in data set [2] (cofactor NADP^+) and in data set [3] (cofactor NMN^+) were 6.5 mM, 2 mM and 5.9 ± 1 mM, respectively. The “drop of catalytic efficiency for NAD^+ upon introducing S17E” value in data set [1] (compared with GDH Triple) stood at 220 fold. Further, in data set [2] (compared with GDH Triple), the “drop of catalytic efficiency for NADP^+ upon introducing S17E” value came to 890 fold. Besides, in data set [3], the “change of NMN^+-dependent catalytic efficiency compared with GDH Triple” value is given as “modest reduction”. Moreover, in data set [3] (compared to wild type), the “overall specificity switch towards NMN^+ from NADP^+” value is reported as ~1×10^7 fold. Besides, the “overall specificity switch towards NMN^+ from NAD^+” value in data set [3] (compared to wild type) is given as ~2×10^7 fold. The “cell growth on glucose” value in data set [4] (minimal glucose medium, GDH without XenA) is “did not grow”; in data set [4] (minimal medium, glucose sole carbon source, GDH with XenA, listed as GDH Ortho), “able to grow; also recorded: supported E. coli growth on glucose”. The “levodione fraction of total products by mass” value in data set [5] (XenA, LVR and ADH over-expressed simultaneously) is on record as roughly 92%. Besides, in data set [5] (resting cells with LVR or ADH), the “LVR- and ADH-catalyzed formation of phorenol or HIP” value is recorded as “minimal levels of phorenol or HIP”. Moreover, the levodione produced in data set [5] (resting cells with XenA, 5 g/L KIP, glucose co-substrate) is given as roughly 1 g/L.

B2: XenA: enoate reductase XenA from Pseudomonas putida, wild type (protein, listed as Pseudomonas putida)
chain: MSALFEPYTLKDVTLRNRIAIPPMCQYMAEDGLINDWHQVHYASMARGGAGLLVVEATAVAPEGRITPGCAGIWSDAHAQAFVPVVQAIKAAGSVPGIQIAHAGRKASANRPWEGDDHIGADDARGWETIAPSAIAFGAHLPNVPRAMTLDDIARVKQDFVDAARRARDAGFEWIELHFAHGYLGQSFFSEHSNKRTDAYGGSFDNRSRFLLETLAAVREVWPENLPLTARFGVLEYDGRDEQTLEESIELARRFKAGGLDLLSVSVGFTIPETNIPWGPAFMGPIAERVRREAKLPVTSAWGFGTPQLAEAALQANQLDLVSVGRAHLADPHWAYFAAKELGVEKASWTLPAPYAHWLERYR
As for B2, in data set [6], the “activity with NMNH as reducing cofactor” value is “comparable activity to the natural cofactors NADH and NADPH; also recorded: comparable activity to the natural cofactors NADPH and NADH”.

Broadly, the Km is the substrate concentration at which the rate is half of its maximum.
